Key:
[1] = biological target: S. cerevisiae RNA polymerase II (Pol II), stalled elongation complex on DNA with nascent RNA (S. cerevisiae) (UniProt P16370)
[2] = biological target: S. cerevisiae RNA polymerase II (Pol II), stalled elongation complex on DNA with nascent RNA (S. cerevisiae) (UniProt P16370); remark: listed apart in the source

Sequence of UniProt P16370 (P16370 whole entry, looked up, one chain of several): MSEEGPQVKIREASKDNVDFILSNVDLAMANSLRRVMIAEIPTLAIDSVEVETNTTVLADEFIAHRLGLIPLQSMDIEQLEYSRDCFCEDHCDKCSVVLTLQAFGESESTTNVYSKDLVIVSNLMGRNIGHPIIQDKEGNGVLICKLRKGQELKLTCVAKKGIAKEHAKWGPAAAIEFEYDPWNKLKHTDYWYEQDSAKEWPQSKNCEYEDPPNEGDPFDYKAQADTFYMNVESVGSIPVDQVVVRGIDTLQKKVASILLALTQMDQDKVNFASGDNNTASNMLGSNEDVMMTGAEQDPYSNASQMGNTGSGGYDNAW

B1: Sen1 helicase domain (Sen1 HD, 1095–1904) (domain or fragment)
chain: AELAKQELEHMRKRLNVDMNPLYEIILQWDYTRNSEYPDDEPIGNYSDVKDFFNSPADYQKVMKPLLLLESWQGLCSSRDREDYKPFSIIVGNRTAVSDFYDVYASVAKQVIQDCGISESDLIVMAYLPDFRPDKRLSSDDFKKAQHTCLAKVRTLKNTKGGNVDVTLRIHRNHSFSKFLTLRSEIYCVKVMQMTTIEREYSTLEGLEYYDLVGQILQAKPSPPVNVDAAEIETVKKSYKLNTSQAEAIVNSVSKEGFSLIQGPPGTGKTKTILGIIGYFLSTKNASSSNVIKVPLEKNSSNTEQLLKKQKILICAPSNAAVDEICLRLKSGVYDKQGHQFKPQLVRVGRSDVVNVAIKDLTLEELVDKRIGERNYEIRTDPELERKFNNAVTKRRELRGKLDSESGNPESPMSTEDISKLQLKIRELSKIINELGRDRDEMREKNSVNYRNRDLDRRNAQAHILAVSDIICSTLSGSAHDVLATMGIKFDTVIIDEACQCTELSSIIPLRYGGKRCIMVGDPNQLPPTVLSGAASNFKYNQSLFVRMEKNSSPYLLDVQYRMHPSISKFPSSEFYQGRLKDGPGMDILNKRPWHQLEPLAPYKFFDIISGRQEQNAKTMSYTNMEEIRVAIELVDYLFRKFDNKIDFTGKIGIISPYREQMQKMRKEFARYFGGMINKSIDFNTIDGFQGQEKEIILISCVRADDTKSSVGFLKDFRRMNVALTRAKTSIWVLGHQRSLAKSKLWRDLIEDAKDRSCLAYACSGFLDPRNNRAQSILRKFNVPVPSEQEDDYKLPMEYITQGPDEVKSN
Km of formation of the intermediate (Sen1·sEC)'; Michaelis-Menten fit of t1, the lifetime before the intermediate forms [1]: 0.096 nM
Km of removal of stalled Pol II by Sen1 HD (10-100 pM); Michaelis-Menten fit of the mean total lifetime (t total) of the transcription bubble; magnetic-trap DNA supercoiling assay, 1 mM ATP, 28 °C [1]: 70 pM
Km of removal of stalled Pol II by Sen1 HD; Michaelis-Menten fit of t total, corrected for the stalling rate ks [1]: 0.083 nM
Km of removal of stalled Pol II by Sen1 HD; single-molecule Michaelis-Menten global fit of t total distributions (from k1, k-1 and kCAT) [1]: 0.041 nM
k1, rate of binding of Sen1 HD to the stalled elongation complex; single-molecule Michaelis-Menten global fit of t total distributions, kCAT constrained [1]: 2.18e+09 M⁻¹ s⁻¹
k−1, rate of unbinding of Sen1 HD from the stalled elongation complex; single-molecule Michaelis-Menten global fit of t total distributions, kCAT constrained [1]: 0.0725 s⁻¹
k−1, rate of unbinding of Sen1 HD from the stalled elongation complex; the same fit [2]: 0.0719 s⁻¹

Source: PMC6449345
